The subject of data set [1] is EpiDerm™ cultures (EPI-200). Briefly: In Vitro EpiDerm Skin Irritation Test (EPI-200-SIT), MTT tissue viability. Type of data set: cell-based, human.
Data set [2] deals with human reconstructed nasal epithelium model (NAS-100-BETA by MatTek). In words: Nasal irritation, MTT tissue viability. The format is cell-based. The procedure:
(§1) The formulations were performed using an increased dosage (e.g., 40-50 μg) compared to the study in Example 3.
(§2) Cultures were maintained and treated topically and at the end of the treatment, tissue viability was determined using the MTT conversion assay as described in Example 3. The Relative Tissue Viability values were determined and used to classify the test articles as irritant or non-irritants according to the assay criteria. As a secondary output, levels of the proinflammatory mediator IL-1α were determined as described in Example 3.

In data set [3] the test system is IL-1α. In words: EpiDerm skin irritation, IL-1α secretion (Quantikine ELISA). As to conditions: EpiDerm cultures, media collected after 24 hours; rhACE-2 2.5-40 μg/ml. The format is cell-based, human. On the technique in general: ELISA stands for enzyme-linked immunosorbent assay.
Data set [4] is described as follows: Visual solubility assessment of ACE-2 protein in liquid excipients. Type of data set: physicochemical. The conditions noted are these: for Visual observation for solubility: 1.6 μg API in 3.0 g. The procedure: The solubility of compounds in liquid excipients was determined using visual solubility protocol. In this method, about 3.0 g of excipients was accurately weighed in individually labelled 20 mL scintillation vials (USP Type-I). To these vials, accurately measured 1 (1.67 μg) aliquots of protein was added and tightly closed. […] The vials were kept at ambient temperature without agitation for 72 hours and visually inspected at 0, 24, and 72 hours.

The test system of data set [5] is human nasal epithelial cultures (EpiAirway, NAS-100-beta). In words: Nasal permeation of rhACE-2 (ELISA of receiving medium). The format is in vitro ADME. As to conditions: for nasal permeation value (rhACE-2 in receiving medium): 50 μg/ml rhACE-2 in formulation. The text has this:
In order to determine the nasal permeation profile, human nasal epithelial cultures (EpiAirway, NAS-100-beta manufactured by MatTek Corporation) were used.
At the end of each time point, culture medium was completely removed and replaced with fresh medium.

Data set [6] relates to IL-1α. In words: Nasal irritation, IL-1α levels. The format is cell-based, human. The procedure: as §1, §2
The subject of data set [7] is reconstructed human skin model (Epiderm, EPI-200-X). Briefly: Skin permeation of rhACE-2 (ACE-2 ELISA of receiving medium). Type of data set: in vitro ADME. The conditions noted are these: for skin permeation value (rhACE-2 in receiving medium): 50 μg/ml rhACE-2 in formulation. On the procedure:
In order to determine the skin permeation profile, a reconstructed human skin model (Epiderm, EPI-200-X manufactured by MatTek Corporation) was used. This model includes normal, human-derived epidermal keratinocytes (NHEK) which have been cultured to form a multilayered, highly differentiated model of the human epidermis. The NHEK cells are cultured on specially-prepared cell culture inserts using serum free medium and attain levels of differentiation. The EpiDerm Skin Model closely parallels human skin, thus providing a useful in vitro means to assess dermal irritancy and toxicology.
After an acclimation period, the skin cultures were treated in triplicates PBS (negative control/baseline), vehicle formulation (“Placebo”), and formulation containing 50 μg/ml ACE-2. At the end of each time point culture medium was completely removed and replaced with fresh medium. The amount of permeated ACE-2 over time was determined by ACE-2 ELISA. Levels of ACE-2 in the receiving medium were determined at the following timepoints: 0 minutes, 5 minutes, 30 minutes, 60 minutes, 180 minutes, 540 minutes, 1260 minutes, and 1440 minutes.

Data set [8] deals with hCoV-19/USA-WA1/2020 (WA). Type of data set: cell-based, SARS-CoV-2. As to conditions: in µg/mL.
In data set [9] the test system is hCoV-19/South Africa/KRISP-K005325/2020 (SA). Type of data set: cell-based, SARS-CoV-2.

For the compound `CCCCCCCCCCCCOS(=O)(=O)[O-].[Na+]` [5% SDS], the “mean viability of positive control tissues expressed as percentage of the negative control tissues” value in data set [1] is 4%; in data set [2] (nasal epithelium model) it was 2%. In addition, the “secretion of IL-1α” value in the data set on IL-1α [3] is on record as “significant increase in IL-1α secretion”.
Take rhACE-2: the “Visual observation for solubility” value in data set [4] (in 1X PBS, 24 hr) is on record as “Clear solution”; in [4] (in 1X PBS, 72 hr), “Clear solution”; in data set [4] (in 1X PBS, Initial Observation), “Clear solution”; in data set [4] (in Glycerin, 24 hr), “Clear solution”; in data set [4] (in Glycerin, 72 hr), “Clear solution”; in data set [4] (in Glycerin, Initial Observation), “Clear solution”. Besides, the “Visual observation for solubility” value is “Clear solution” in [4] (in Hexylene Glycol, 24 hr); “Clear solution” in data set [4] (in Hexylene Glycol, 72 hr); “Clear solution” in data set [4] (in Hexylene Glycol, Initial Observation); “Clear solution” in [4] (in Polyethylene Glycol 400, 24 hr); “Clear solution” in data set [4] (in Polyethylene Glycol 400, 72 hr); “Clear solution” in [4] (in Polyethylene Glycol 400, Initial Observation). The “Visual observation for solubility” value in data set [4] (in Polysorbate 20, 24 hr) is “Clear yellow”; in data set [4] (in Polysorbate 20, 72 hr), “Clear yellow”; in [4] (in Polysorbate 20, Initial Observation) it was “Clear yellow”; in data set [4] (in Propylene Glycol, 24 hr), “Clear solution”; in data set [4] (in Propylene Glycol, 72 hr) it was “Clear solution”; in data set [4] (in Propylene Glycol, Initial Observation), “Clear solution”. Moreover, the “Visual observation for solubility” value is listed as “Clear solution” in [4] (in Purified Water, USP, 24 hr); “Clear solution” in data set [4] (in Purified Water, USP, 72 hr); “Clear solution” in data set [4] (in Purified Water, USP, Initial Observation). Besides, in [4] (propylene glycol, hexylene glycol, glycerin, polyethylene glycol 400, polysorbate 20, purified water, PBS), the “solubility in all the excipients tested” value was “readily soluble”. Also, the “nasal permeation value (rhACE-2 in receiving medium)” value in [5] (5 minutes post application) came out at 0.035 ng/ml; in [5] (180 minutes post application), 0.06 ng/ml; in [5] (540 minutes post application), 0.413 ng/ml; in [5] (1260 minutes post application), 1.03 ng/ml; in data set [5] (1440 minutes post application), 0.249 ng/ml. Besides, the “permeation through reconstructed human nasal tissue” value in data set [5] (at 50 μg/ml) is listed as “minimal to negligible permeation”. The “average IL-1α levels” value in the data set on IL-1α [6] (rhACE-2 3.06 μg/ml) and in the data set with IL-1α [6] (rhACE-2 6.125 μg/ml) was 0 ng/mL throughout. The “skin permeation value (rhACE-2 in receiving medium)” value in data set [7] (5 minutes post application) came to 0.402 ng/ml; in data set [7] (30 minutes post application), 0.578 ng/ml; in data set [7] (60 minutes post application) it was 1.28 ng/ml; in data set [7] (180 minutes post application) it was 0.0196 ng/ml; in data set [7] (540 minutes post application), 0 ng/ml; in [7] (1260 minutes post application), 0.98 ng/ml. Further, the “skin permeation value (rhACE-2 in receiving medium)” value in [7] (1440 minutes post application) is given as 0.029 ng/ml. Further, the “permeation through reconstructed human skin tissue” value in [7] (at 50 μg/ml) was “minimal to negligible permeation”. In addition, in [2] (all tested concentrations, 3.06-50 μg/ml), the “classification as nasal irritant” value is reported as “nasal non-irritants”.
With ACE2, the EC50 was 9.206 in data set [8] and 1.18 µg/mL in data set [9].

Source of the values: US11986516B2, “Compositions and methods for treatment of SARS-COV-2” (priority 2021, dated 2024).
